The values below are quoted from earlier work in article PMC5266483.

This data set addresses Lys14 (position 14, …). As to the kind of experiment: NMR. As to conditions: 37 °C; Transmembrane helix in DOPC.

GGALWLALALALAKALALWLAGA [GWALP23-K14 (synthetic construct; L14K)]: the pKa – broadly, the pH at which an ionisable group is half protonated – is 6.5.
